B1: Insulin receptor substrate 1 (Rattus norvegicus (Rat)), P35570 (parent)
chain: MASPPDTDGFSDVRKVGYLRKPKSMHKRFFVLRAASEAGGPARLEYYENEKKWRHKSSAPKRSIPLESCFNINKRADSKNKHLVALYTRDEHFAIAADSEAEQDSWYQALLQLHNRAKAHHDGAGGGCGGSCSGSSGVGEAGEDLSYDTGPGPAFKEVWQVILKPKGLGQTKNLIGIYRLCLTSKTISFVKLNSEAAAVVLQLMNIRRCGHSENFFFIEVGRSAVTGPGEFWMQVDDSVVAQNMHETILEAMRAMSDEFRPRTKSQSSSSCSNPISVPLRRHHLNNPPPSQVGLTRRSRTESITATSPASMVGGKPGSFRVRASSDGEGTMSRPASVDGSPVSPSTNRTHAHRHRGSSRLHPPLNHSRSIPMPSSRCSPSATSPVSLSSSSTSGHGSTSDCLFPRRSSASVSGSPSDGGFISSDEYGSSPCDFRSSFRSVTPDSLGHTPPARGEEELSNYICMGGKGASTLTAPNGHYILSRGGNGHRYIPGATMGTSPALTGDEAAGAADLDNRFRKRTHSAGTSPTISHQKTPSQSSVVSIEEYTEMMPAAYPPGGGSGGRLPGYRHSAFVPTHSYPEEGLEMHHLERRGGHHRPDSSNLHTDDGYMPMSPGVAPVPSNRKGNGDYMPMSPKSVSAPQQIINPIRRHPQRVDPNGYMMMSPSGSCSPDIGGGSCSSSSISAAPSGSSYGKPWTNGVGGHHTHALPHAKPPVESGGGKLLPCTGDYMNMSPVGDSNTSSPSECYYGPEDPQHKPVLSYYSLPRSFKHTQRPGEPEEGARHQHLRLSSSSGRLRYTATAEDSSSSTSSDSLGGGYCGARPESSVTHPHHHALQPHLPRKVDTAAQTNSRLARPTRLSLGDPKASTLPRVREQQQQQQQQQQSSLHPPEPKSPGEYVNIEFGSGQPGYLAGPATSRSSPSVRCLPQLHPAPREETGSEEYMNMDLGPGRRATWQESGGVELGRVGPAPPGAASICRPTRSVPNSRGDYMTMQIGCPRQSYVDTSPVAPVSYADMRTGIAAEKVSLPRTTGAAPPPSSTASASASVTPQGAAEQAAHSSLLGGPQGPGGMSAFTRVNLSPNHNQSAKVIRADTQGCRRRHSSETFSAPTRAANTVSFGAGAAGGGSGGGSEDVKRHSSASFENVWLRPGDLGGASKESAPGCGAAGGLEKSLNYIDLDLVKDVKQHPQDCPSQQQSLPPPPPHQPLGSNEGSSPRRSSEDLSTYASINFQKQPEDRQ

Results on 1 variant are retold here after IntAct's records for PubMed 11018022.

Variants of B1 are the subject of the test. Conditions: with phip_mouse Phip.
Turning to W106A, the “effect of a mutation on the interaction” value is “disrupting interaction”.
